From the supplement of paper PMC9876800

Test system: peptide library, one residue held at a place counted from the S/T acceptor
Assay: relative phosphorylation of the sub-library (ratio to the mean residue at this position); human; higher = residue favoured
How it was run: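 Spots on streptavidin membranes were phosphorimaged and quantified by densitometry to measure phosphorylation of biotinylated degenerate peptide sub-libraries by purified recombinant kinases, human or orthologue constructs. The reactions ran in 384-well plates for 90 min under kinase-specific conditions, with peptides at 50 μM and 50 μM ATP spiked with γ-32P-ATP. Relative sub-library phosphorylation is the ratio to the mean residue at that position.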

PRPF4B, construct: aa519-end, sequence (Q13523 519-1007, looked up): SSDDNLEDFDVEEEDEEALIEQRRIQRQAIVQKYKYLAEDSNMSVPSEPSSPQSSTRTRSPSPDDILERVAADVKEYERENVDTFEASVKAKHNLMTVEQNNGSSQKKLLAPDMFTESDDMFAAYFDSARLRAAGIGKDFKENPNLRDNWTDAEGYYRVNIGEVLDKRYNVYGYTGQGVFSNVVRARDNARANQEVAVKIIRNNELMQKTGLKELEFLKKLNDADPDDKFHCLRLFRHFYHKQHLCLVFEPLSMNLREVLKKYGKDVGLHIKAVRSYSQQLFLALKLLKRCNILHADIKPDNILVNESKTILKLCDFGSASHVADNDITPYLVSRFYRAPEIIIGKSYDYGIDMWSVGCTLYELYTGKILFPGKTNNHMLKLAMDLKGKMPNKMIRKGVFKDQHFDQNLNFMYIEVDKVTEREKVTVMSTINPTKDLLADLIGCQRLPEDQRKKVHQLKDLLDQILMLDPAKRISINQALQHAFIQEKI

PKN3, construct: Full length (from UniProt Q6P5Z2)
relative phosphorylation
Conditions | at +1 | at +2 | at +3 | at +4 | at -1 | at -2 | at -3 | at -4 | at -5
A fixed | 0.497 | 0.811 | 0.681 | 0.955 | 0.874 | 1.12 | 0.679 | 1.07 | 0.92
D fixed | 0.614 | 0.652 | 0.765 | 0.967 | 1.01 | 0.684 | 0.44 | 0.823 | 0.801
E fixed | 0.554 | 0.784 | 0.848 | 0.887 | 1.06 | 0.791 | 0.504 | 1.12 | 0.719
F fixed | 4.24 | 0.552 | 0.883 | 0.671 | 0.682 | 0.703 | 0.562 | 0.717 | 0.839
G fixed | 0.625 | 0.52 | 0.918 | 1.13 | 1.12 | 1.21 | 0.898 | 1.08 | 0.973
H fixed | 0.667 | 1.55 | 1.32 | 1.3 | 1.21 | 1.12 | 1.06 | 1.09 | 1.12
I fixed | 1.14 | 0.724 | 0.782 | 0.714 | 0.444 | 0.511 | 0.427 | 0.776 | 1.18
K fixed | 0.802 | 1.67 | 1.2 | 1.64 | 1.55 | 1.75 | 1.54 | 1.55 | 1.1
L fixed | 0.951 | 0.864 | 0.894 | 0.738 | 0.77 | 0.569 | 0.413 | 0.775 | 1.34
M fixed | 1.83 | 0.728 | 0.833 | 0.858 | 0.854 | 0.771 | 1.28 | 1.07 | 0.97
N fixed | 0.78 | 1.17 | 1 | 1.19 | 1.48 | 1.33 | 0.713 | 1.25 | 1.06
P fixed | 0.426 | 0.432 | 0.736 | 1.36 | 1.56 | 0.721 | 0.899 | 0.924 | 0.955
Q fixed | 0.88 | 0.806 | 1.11 | 1.15 | 1.36 | 1.34 | 0.786 | 0.922 | 0.789
R fixed | 0.74 | 3.4 | 1.4 | 1.02 | 1.12 | 2.24 | 5.22 | 1.4 | 1.5
V fixed | 0.892 | 0.753 | 0.807 | 0.716 | 0.558 | 0.711 | 0.496 | 0.801 | 1.07
W fixed | 0.606 | 0.683 | 1.32 | 0.883 | 0.524 | 0.782 | 0.517 | 0.85 | 0.828
Y fixed | 0.751 | 0.898 | 1.49 | 0.823 | 0.812 | 0.646 | 0.561 | 0.786 | 0.833
pThr fixed | 0.747 | 0.671 | 0.69 | 0.944 | 0.866 | 0.755 | 0.532 | 0.645 | 0.581
pTyr fixed | 0.695 | 0.952 | 0.825 | 0.807 | 0.585 | 0.662 | 0.902 | 0.676 | 0.781

PRKACB, construct: Full length (from UniProt P22694)
relative phosphorylation
Conditions | at +1 | at +2 | at +3 | at +4 | at -1 | at -2 | at -3 | at -4 | at -5
A fixed | 0.818 | 1.26 | 0.948 | 0.9 | 0.875 | 0.426 | 0.62 | 1.15 | 1.18
D fixed | 0.607 | 1.56 | 1.15 | 1.36 | 0.667 | 0.196 | 0.231 | 0.657 | 0.772
E fixed | 0.649 | 0.788 | 1.04 | 1.3 | 0.49 | 0.167 | 0.252 | 0.816 | 0.736
F fixed | 0.811 | 0.684 | 0.72 | 0.689 | 0.455 | 0.209 | 0.213 | 0.486 | 0.594
G fixed | 0.87 | 1.29 | 1.29 | 1.15 | 1.47 | 0.436 | 0.625 | 1.51 | 1.42
H fixed | 1.22 | 1.7 | 1.45 | 1.05 | 1.22 | 0.786 | 1.34 | 1.27 | 1.22
I fixed | 1.21 | 0.573 | 0.488 | 0.705 | 0.265 | 0.2 | 0.127 | 0.471 | 0.394
K fixed | 1.06 | 0.797 | 0.927 | 0.89 | 1.92 | 3.26 | 2.66 | 1.93 | 2.25
L fixed | 1.06 | 0.634 | 0.785 | 0.713 | 0.648 | 0.219 | 0.183 | 0.532 | 0.557
M fixed | 1.46 | 0.701 | 0.79 | 0.747 | 0.856 | 0.25 | 0.204 | 0.782 | 0.601
N fixed | 1.2 | 1.23 | 1.24 | 1.25 | 1.52 | 0.566 | 0.495 | 1.04 | 0.983
P fixed | 0.382 | 1.29 | 1.58 | 1.74 | 1.44 | 0.271 | 0.824 | 1.19 | 1.21
Q fixed | 1.3 | 1.23 | 1.22 | 1.34 | 1.17 | 0.555 | 0.715 | 1.04 | 0.97
R fixed | 1.35 | 0.937 | 1.04 | 0.93 | 2.14 | 8.75 | 7.65 | 2.38 | 2.14
V fixed | 0.892 | 0.59 | 0.517 | 0.877 | 0.446 | 0.191 | 0.184 | 0.482 | 0.605
W fixed | 1.05 | 1.03 | 0.964 | 0.66 | 0.577 | 0.236 | 0.329 | 0.6 | 0.746
Y fixed | 1.06 | 0.709 | 0.855 | 0.698 | 0.839 | 0.276 | 0.354 | 0.67 | 0.624
pThr fixed | 0.988 | 0.988 | 0.984 | 1.67 | 0.443 | 0.319 | 0.474 | 0.789 | 0.727
pTyr fixed | 1.06 | 1 | 1.24 | 1.37 | 0.979 | 0.276 | 0.451 | 0.775 | 0.82

PRKCG, construct: Full length (from UniProt P05129)
relative phosphorylation
Conditions | at +1 | at +2 | at +3 | at +4 | at -1 | at -2 | at -3 | at -4 | at -5
A fixed | 0.569 | 0.495 | 0.701 | 0.922 | 0.946 | 0.862 | 0.699 | 1.09 | 1.16
D fixed | 0.22 | 0.261 | 0.452 | 0.666 | 0.538 | 0.455 | 0.412 | 0.62 | 0.676
E fixed | 0.29 | 0.183 | 0.628 | 0.508 | 0.477 | 0.388 | 0.415 | 0.708 | 0.554
F fixed | 1.46 | 0.545 | 0.842 | 0.662 | 0.479 | 0.72 | 0.771 | 0.818 | 1.21
G fixed | 0.516 | 0.337 | 1.06 | 1.27 | 1.87 | 1.19 | 1.06 | 1.32 | 1.23
H fixed | 0.686 | 1.26 | 1.23 | 1.32 | 0.972 | 1.12 | 1.3 | 1.28 | 1.23
I fixed | 1.37 | 0.507 | 0.723 | 0.507 | 0.311 | 0.329 | 0.381 | 0.49 | 0.572
K fixed | 1.92 | 4.06 | 2.11 | 2.56 | 1.87 | 2.01 | 2 | 1.55 | 1.71
L fixed | 1.34 | 0.484 | 0.932 | 0.531 | 0.548 | 0.409 | 0.469 | 0.506 | 0.589
M fixed | 1.56 | 0.599 | 0.738 | 0.586 | 0.741 | 0.606 | 0.652 | 0.767 | 0.572
N fixed | 0.652 | 0.609 | 1.02 | 1.01 | 1.24 | 1.28 | 1.08 | 1.1 | 0.85
P fixed | 0.333 | 0.334 | 0.516 | 1.36 | 1.16 | 1.16 | 1.12 | 1.09 | 0.937
Q fixed | 1.15 | 0.688 | 0.856 | 1.09 | 1.08 | 1.21 | 0.934 | 1.05 | 0.887
R fixed | 1.98 | 4.33 | 2.43 | 1.97 | 2.85 | 2.99 | 3.78 | 1.94 | 1.71
V fixed | 1.15 | 0.48 | 0.608 | 0.563 | 0.497 | 0.418 | 0.496 | 0.639 | 0.723
W fixed | 0.751 | 0.6 | 1.03 | 0.817 | 0.558 | 1 | 0.707 | 1.23 | 1.54
Y fixed | 1.05 | 1.22 | 1.12 | 0.664 | 0.869 | 0.841 | 0.725 | 0.799 | 0.848
pThr fixed | 0.973 | 0.563 | 0.673 | 0.486 | 0.484 | 0.746 | 0.805 | 0.947 | 0.683
pTyr fixed | 0.794 | 0.916 | 0.911 | 0.498 | 0.875 | 0.842 | 0.973 | 0.86 | 0.8

PRPF4B, construct: aa519-end (from UniProt Q13523)
relative phosphorylation
Conditions | at +1 | at +2 | at +3 | at +4 | at -1 | at -2 | at -3 | at -4 | at -5
A fixed | 0.571 | 0.959 | 0.8 | 0.921 | 1.05 | 1.22 | 1.02 | 1.06 | 0.939
D fixed | 0.544 | 0.683 | 0.635 | 0.83 | 0.907 | 0.693 | 0.586 | 1.81 | 1.13
E fixed | 0.929 | 0.685 | 0.59 | 0.808 | 1.25 | 0.553 | 0.512 | 1.16 | 0.966
F fixed | 0.507 | 1.27 | 0.722 | 0.958 | 0.81 | 1.27 | 0.409 | 0.856 | 0.905
G fixed | 0.774 | 0.741 | 1.05 | 1.4 | 0.744 | 1.3 | 8.94 | 1.77 | 0.991
H fixed | 0.596 | 1.07 | 1.01 | 1.02 | 0.844 | 0.907 | 0.507 | 1.01 | 0.832
I fixed | 0.68 | 1.42 | 0.911 | 0.934 | 0.863 | 1.21 | 0.404 | 0.681 | 0.831
K fixed | 0.56 | 0.713 | 1.08 | 1.03 | 0.894 | 0.582 | 0.382 | 0.747 | 1.04
L fixed | 0.548 | 0.954 | 0.91 | 0.9 | 1.03 | 0.866 | 0.41 | 0.866 | 0.83
M fixed | 0.689 | 1.05 | 0.747 | 1.04 | 1.27 | 0.815 | 0.43 | 0.75 | 0.842
N fixed | 0.665 | 0.968 | 1.05 | 0.83 | 0.826 | 0.745 | 0.538 | 1.08 | 0.931
P fixed | 5.85 | 0.725 | 2.53 | 1.02 | 0.785 | 1.47 | 0.587 | 1.13 | 1.18
Q fixed | 0.696 | 0.791 | 0.923 | 0.951 | 1.25 | 0.608 | 0.439 | 0.858 | 0.998
R fixed | 0.686 | 0.868 | 1.42 | 1.15 | 1.58 | 0.625 | 0.502 | 0.73 | 1.28
V fixed | 1.56 | 1.44 | 0.953 | 0.882 | 0.922 | 1 | 0.384 | 0.625 | 0.987
W fixed | 0.532 | 1.52 | 0.846 | 1.31 | 1.01 | 2.09 | 0.512 | 1.04 | 1
Y fixed | 0.612 | 1.16 | 0.825 | 1 | 0.969 | 1.04 | 0.435 | 0.812 | 1.31
pThr fixed | 0.638 | 0.803 | 0.794 | 0.583 | 0.68 | 0.828 | 0.697 | 1.72 | 0.911
pTyr fixed | 0.586 | 0.825 | 0.74 | 0.735 | 1.15 | 1.2 | 0.791 | 0.882 | 1.36
